{"source": "patent US20260193370A1", "about": "(SUZHOU SUNCADIA BIOPHARMACEUTICALS, published 2026)", "key": {"[1]": {"biological_target": "T1, human NGF protein (Sino biological, 11050-HNAC) (human, UniProt P01138 122-241)", "T1 sequence (P01138 122-241 limits assumed)": "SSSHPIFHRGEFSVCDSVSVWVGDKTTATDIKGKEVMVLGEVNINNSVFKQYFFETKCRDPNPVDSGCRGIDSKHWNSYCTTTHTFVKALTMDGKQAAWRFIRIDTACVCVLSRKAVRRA", "test": "cell-based or functional assay"}, "[2]": {"biological_target": "T1, human NGF protein (Sino biological, …)", "test": "cell-based or functional assay", "remark": "listed apart in the source"}}}
{"binder": "Tanezumab (antibody, human IgG2, kappa, V domains shown) VH: QVQLQESGPGLVKPSETLSLTCTVSGFSLIGYDLNWIRQPPGKGLEWIGIIWGDGTTDYNSAVKSRVTISKDTSKNQFSLKLSSVTAADTAVYYCARGGYWYATSYYFDYWGQGTLVTVSS VL: DIQMTQSPSSLSASVGDRVTITCRASQSISNNLNWYQQKPGKAPKLLIYYTSRFHSGVPSRFSGSGSGTDFTFTISSLQPEDIATYYCQQEHTLPYTFGQGTKLEIKR", "values": [{"measurement": "TF-1 cell proliferation-inhibiting activity, fold relative to bispecific antibody 1", "setting": "[1]", "result": "~4.2", "unit": "fold"}, {"measurement": "TF-1 cell proliferation-inhibiting activity, IC50 (TF-1 cells with human NGF, Cell-titer Glo)", "setting": "[2]", "result": 0.759, "unit": "nM"}]}
